Results taken from patent US12692524B2, “Sialyltransferases and their use in producing sialylated oligosaccharides” (Chr. Hansen A/S, priority 2017, dated 2026).

B1: SiaT9: sialyltransferase of Vibrio sp. JT-FAJ-16, acc. BAF91160, SEQ ID NO: 2 (protein, listed as Vibrio sp.)
chain: MNNDNSTTTNNNAIEIYVDRATLPTIQQMTKIVSQKTSNKKLISWSRYPITDKSLLKKINAEFFKEQFELTESLKNIILSENIDNLIIHGNTLWSIDVVDIIKEVNLLGKNIPIELHFYDDGSAEYVRIYEFSKLPESEQKYKTSLSKNNIKFSIDGTDSFKNTIENIYGFSQLYPTTYHMLRADIFDTTLKINPLRELLSNNIKQMKWDYFKDFNYKQKDIFYSLTNFNPKEIQEDFNKNSNKNFIFIGSNSATATAEEQINIISEAKKENSSIITNSISDYDLFFKGHPSATFNEQIINAHDMIEINNKIPFEALIMTGILPDAVGGMGSSVFFSIPKEVKNKFVFYKSGTDIENNSLIQVMLKLNLINRDNIKLISDI
B2: SiaT19: sialyltransferase of Photobacterium leiognathi JT-SHIZ-145, acc. BAF91416, SEQ ID NO: 30 (protein, listed as Photobacterium leiognathi)
chain: MNDNQNTVDVVVSTVNDNVIENNTYQVKPIDTPTTFDSYSWIQTCGTPILKDDEKYSLSFDFVAPELDQDEKFCFEFTGDVDGKRYVTQTNLTVVAPTLEVYVDHASLPSLQQLMKIIQQKNEYSQNERFISWGRIRLTEDNAEKLNAHIYPLAGNNTSQELVDAVIDYADSKNRLNLELNTNTGHSFRNIAPILRATSSKNNILISNINLYDDGSAEYVSLYNWKDTDNKSQKLSDSFLVLKDYLNGISSEKPNGIYSIYNWHQLYHSSYYFLRKDYLTVETKLHDLREYLGGSLKQMSWDTFSQLSKGDKELFLNIVGFDQEKLQQEYQQSELPNFVFTGTTTWAGGETKEYYAQQQVNVVNNAINETSPYYLGREHDLFFKGHPRGGIINDIILGSFNNMIDIPAKVSFEVLMMTGMLPDTVGGIASSLYFSIPAEKVSFIVFTSSDTITDREDALKSPLVQVMMTLGIVKEKDVLFWC

Key:
[1] = In vitro kinetics (Km, Vmax), acceptor substrate lactose; format: biochemical; conditions: 30° C., pH7.5, protein extract
Protocol: To rank the best performing sialyltransferases, their Km values for donor and acceptor substrates were determined in vitro. Escherichia coli BL21(DE3) strain #287 was used for overproduction of the enzymes. Cells were incubated in 100 ml 2YT medium in shaking flasks supplemented with 100 μg m^−1 ampicillin at 30° C. until an OD600 of 0.3 was reached. Then, 0.3 mM IPTG was added and the incubation was continued for 12 to 16 hours. Cells were harvested by centrifugation and mechanically disrupted in a defined volume of 50 mM Tris-HCl pH7.5 using glass beads. The protein extract was kept on ice until the assay started. The in vitro assay was carried out in a total volume of 50 μl including 50 mM Tris-HCl pH7.5, 5 mM MgCl2 and varying concentrations of CMP-Neu5Ac (0.05-30 mM) as well as of lactose or LNT (0.1-50 mM). The assay started with the addition of 35 to 750 μg protein extract. After 1 to 10 minutes of incubation at 30° C., the assay was inactivated at 95° C. for 5 minutes. Product formation was determined by mass spectrometry. Data were evaluated using the enzyme kinetic module of SigmaPlot v12.5 to calculate Km and Vmax.
Their kinetic parameters for CMP-Neu5Ac and LNT as well as lactose are depicted in Table 6.

[2] = In vitro sialylation of LNT by protein extracts, LST-a/-b quantified by LC-MS/MS; format: biochemical; conditions: for Ranking in the screening for sialylation of LNT: in words
In short: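 E. coli BL21(DE3) crude extracts overexpressing sialyltransferases (IPTG 0.3 mM, 12–16 h at 30 °C) incubated 16 h with 5 mM LNT and 10 mM CMP-Neu5Ac in 50 mM Tris-HCl pH 7.5, 5 mM MgCl2. LST-a and LST-b measured by HILIC LC-MS/MS, MRM in ESI negative mode, against commercial standards.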

[3] = 5 mM LNT, 10 mM CMP-Neu5Ac, 16 hours, LC-MS/MS, relative quantity, n.d.: not detectable

Molecule	Km [1] [µM]	Vmax Lactose [1] [µmol/min]	Relative efficacy of sialyltransferases regarding in-vitro production of sialyllacto-N-tetraoses: LST-a [2, 3]	Ranking in the screening for sialylation of LNT [2]	Relative efficacy of sialyltransferases regarding in-vitro production of sialyllacto-N-tetraoses: LST-b [2, 3]
B1	2900	0.18	8.39 × 10^3	best performing α-2,3-sialyltransferases for LST-a production	–
B2	3000	0.09	–	sialylate LNT most efficiently among the tested α-2,6-sialyltransferases	157
